From patent publication US20040052794, “p53 regulatory protein called RB18A and uses thereof” (published 2004)

T1: GST-RB18A-N2 (Homo sapiens, UniProt Q15648 SEQ:1234-1566)
T1 chain: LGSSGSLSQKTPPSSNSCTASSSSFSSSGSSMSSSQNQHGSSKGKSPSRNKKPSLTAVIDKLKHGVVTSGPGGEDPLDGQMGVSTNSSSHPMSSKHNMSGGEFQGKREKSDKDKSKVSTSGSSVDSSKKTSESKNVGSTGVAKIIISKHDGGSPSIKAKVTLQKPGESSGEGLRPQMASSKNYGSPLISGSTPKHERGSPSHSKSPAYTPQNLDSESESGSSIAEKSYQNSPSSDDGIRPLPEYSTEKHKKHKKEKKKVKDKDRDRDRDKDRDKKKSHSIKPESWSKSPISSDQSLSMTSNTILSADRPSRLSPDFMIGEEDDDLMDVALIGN

B1: TL non-specific competitor (dsDNA)
DNA 1: TATGTCTAAGGGACCTGCGGTTGGCATTGATCTTG
DNA 2: CAAGATCAATGCCAACCGCAGGTCCCTTAGACATA
B2: PG p53 consensus oligonucleotide (dsDNA)
DNA 1: AATTCAGACATGCCTAGACATGCCTG
DNA 2: CAGGCATGTCTAGGCATGTCTGAATT

How the values were obtained:
p53 wild-type = p53 wild-type (Homo sapiens, UniProt P04637 P04637:1-393); test: competition; non-specific oligo did not inhibit the complex with n1; conditions: tags: none; plasmid pSP65-p53H8; chain copies: 4
Chain of p53 wild-type (P04637 whole entry, one chain of several): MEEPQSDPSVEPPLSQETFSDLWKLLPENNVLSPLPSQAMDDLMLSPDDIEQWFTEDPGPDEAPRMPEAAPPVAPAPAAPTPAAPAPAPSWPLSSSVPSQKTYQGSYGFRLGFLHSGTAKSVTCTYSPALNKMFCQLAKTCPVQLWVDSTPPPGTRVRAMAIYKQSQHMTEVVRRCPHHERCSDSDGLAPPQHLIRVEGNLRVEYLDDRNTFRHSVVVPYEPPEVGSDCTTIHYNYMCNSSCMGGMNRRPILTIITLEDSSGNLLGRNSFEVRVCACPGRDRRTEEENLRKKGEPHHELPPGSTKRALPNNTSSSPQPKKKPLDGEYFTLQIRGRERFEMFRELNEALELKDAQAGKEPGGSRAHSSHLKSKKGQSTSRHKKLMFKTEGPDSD
Description: (§1) Part A: four μl of in vitro translated products of wild-type p53 (lanes 2, 5-10) or Luciferase (lanes 3-4) cDNAs were incubated for 20 min at room temperature with 0.2 μg of PAb421 (lane 5) or PAb1801 (lane 6) moAbs or with 1 μg of GST-RB18A-N2 (lanes 4, 7, 8 and 9) or GST-RB18A-Nl1 (lane 10) proteins. Then, a radiolabeled oligonucleotide (0.4 ng per lane) containing the consensus DNA binding site of p53 was added for 20 min at 4° C.
(§2) EMSA was performed as follows. Translated product (4 μl) was pre-incubated for 20 min at room temperature with 1 μg of GST-RB18A fusion protein or 0.2 μg of moAb in a final reaction volume of 14 μl of buffer A (25 mM Tris, pH 7.4, 80 mM KCl, 0.1 mM EDTA, 1 mM DTT and 10% glycerol). Then, 6 μl of buffer B (80 mM KCl, 16.6 mM MgCl₂ and 3 mg/ml BSA) containing 0.4 ng of labeled oligonucleotide and 0.5 μg of poly(dl-dC) were added and incubation was carried out for 20 min at 4° C. Reaction products were run for 15 min at 200 V on a 4% polyacrylamide gel containing 0.4×Tris-Borate-EDTA (90 mM Tris, 64.6 mM Borate, 2.5 mM EDTA, pH 8.3).

GST-RB18A-N2 = biological target: T1, GST-RB18A-N2; test: EMSA; no direct interaction with p53 oligonucleotide; conditions: tags: N-terminal GST; label: 32P; EcoRI-compatible ends
Description: as §1, §2

| Binder | binding result (p53 wild-type) | binding result (GST-RB18A-N2) |
| --- | --- | --- |
| B1 | no binding |  |
| B2 |  | no binding |
